Data on one substance can be found in PMC8786796.

For assay [1], the target named is TLR5 (endogenous, on Jurkat JE6-1 NF-κB::eGFP reporter cells) (human (endogenous in Jurkat JE6-1)) (UniProt O60602).
Assay [2] shares this target. The source holds these as a separate data set.

Chain of UniProt O60602 (O60602 21-858): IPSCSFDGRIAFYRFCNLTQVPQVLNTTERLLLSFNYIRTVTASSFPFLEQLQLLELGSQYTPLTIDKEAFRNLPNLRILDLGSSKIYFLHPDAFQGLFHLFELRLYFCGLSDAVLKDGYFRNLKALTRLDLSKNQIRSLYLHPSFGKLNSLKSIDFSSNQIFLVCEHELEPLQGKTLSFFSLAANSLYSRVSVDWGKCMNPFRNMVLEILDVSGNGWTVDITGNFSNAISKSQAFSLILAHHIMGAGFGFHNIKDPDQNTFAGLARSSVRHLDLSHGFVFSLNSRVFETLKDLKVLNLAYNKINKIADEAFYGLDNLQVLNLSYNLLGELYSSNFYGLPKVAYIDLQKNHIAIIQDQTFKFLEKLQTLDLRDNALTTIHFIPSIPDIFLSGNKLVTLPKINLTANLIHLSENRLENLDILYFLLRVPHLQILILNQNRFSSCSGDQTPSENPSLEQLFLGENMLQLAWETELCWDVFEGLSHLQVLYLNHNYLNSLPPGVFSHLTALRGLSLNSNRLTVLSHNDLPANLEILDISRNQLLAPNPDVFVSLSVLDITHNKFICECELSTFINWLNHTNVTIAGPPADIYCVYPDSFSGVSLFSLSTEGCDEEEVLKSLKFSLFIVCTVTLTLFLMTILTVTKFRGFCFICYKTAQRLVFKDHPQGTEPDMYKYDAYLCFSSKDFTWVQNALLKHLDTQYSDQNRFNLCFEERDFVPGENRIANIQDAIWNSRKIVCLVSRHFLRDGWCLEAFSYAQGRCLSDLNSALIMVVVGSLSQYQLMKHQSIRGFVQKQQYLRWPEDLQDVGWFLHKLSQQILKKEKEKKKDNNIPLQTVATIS

Consider “flagellin purified from S. typhimurium (Fla-ST standard and Fla-ST ultrapure) (from UniProt P06179 1-495) (ligand)”, for which the NF-κB::eGFP expression in Jurkat JE6-1 reporter cells (endogenous TLR5), flagellin titrated, 24 h, flow cytometry; lowest concentration giving detectable eGFP in assay [1] is below 100 pg/mL. Further, the limit of detection (concentration giving a 1.5-fold increase of eGFP) in JE6-1 TLR5 NF-κB::eGFP reporter cells, flagellin titrated in assay [2] worked out at 10 pg/mL.
